Test results from US20250297004A1, “NECTIN-4 BINDING AGENTS” (INNATE PHARMA, priority 2022, published 2025).
Substitutions are numbered along the chain they refer to.

T1: human Nectin-4 Mutant 7 (S195A/K197T/S199A) (Homo sapiens, UniProt Q96NY8, K197T/S195A/S199A)
T1 construct: expressed in transfected cells; host or cells: HEK293T
T1 sequence (Q96NY8 32-510 S195A/K197T/S199A): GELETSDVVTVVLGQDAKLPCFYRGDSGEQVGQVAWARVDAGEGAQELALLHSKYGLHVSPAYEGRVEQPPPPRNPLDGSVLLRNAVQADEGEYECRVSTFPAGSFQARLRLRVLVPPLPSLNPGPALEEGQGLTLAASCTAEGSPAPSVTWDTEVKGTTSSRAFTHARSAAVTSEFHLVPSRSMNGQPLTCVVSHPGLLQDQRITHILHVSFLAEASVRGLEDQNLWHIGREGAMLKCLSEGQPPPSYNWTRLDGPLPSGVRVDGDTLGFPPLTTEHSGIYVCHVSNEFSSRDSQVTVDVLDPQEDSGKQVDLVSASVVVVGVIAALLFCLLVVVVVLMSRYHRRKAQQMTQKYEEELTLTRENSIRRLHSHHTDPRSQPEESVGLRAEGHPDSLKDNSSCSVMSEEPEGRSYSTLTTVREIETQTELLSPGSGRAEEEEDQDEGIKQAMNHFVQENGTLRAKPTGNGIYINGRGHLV

T2: human Nectin-4 Mutant 7bis (A72P/G73N/K197T/S199A) (Homo sapiens, UniProt Q96NY8, A72P/G73N/K197T/S199A)
T2 construct: expressed in transfected cells; host or cells: HEK293T
T2 sequence (Q96NY8 32-510 A72P/G73N/K197T/S199A): T1 sequence (Q96NY8 32-510 S195A/K197T/S199A) with A41P, G42N, A164S

T3: human Nectin-4 Mutant 3 (A76S/Q77R/E78A/S91N) (Homo sapiens, UniProt Q96NY8, A76S/E78A/Q77R/S91N)
T3 construct: expressed in transfected cells; host or cells: HEK293T
T3 sequence (Q96NY8 32-510 A76S/Q77R/E78A/S91N): T1 sequence (Q96NY8 32-510 S195A/K197T/S199A) with A45S, Q46R, E47A, S60N, A164S, T166K, A168S

B1: N41 (antibody, V domains shown)
VH: QVQLKQSGPGLVQPSQSLSITCTVSGFSLTNYGVHWVRQSPGKGLEWLGVIWSGGSTDYNAAFISRLSISKDTSKSQVFFKMNSLQADDTAIYYCARELIHAMDNWGQGTSVTVSS
VL: DIQMTQSPASLSVSVGETVTITCRASENIYSNLAWYQQKQGNSPQLLVFAATNLADGVPSRFSGSGSGTQYSLKINSLQSEDFGTYYCQHFWGTPTFGGGTKLEIK
B2: 5E7 (antibody, V domains shown)
VH: QVQLQQPGAELVKPGASVKLSCKASGYIFTSYWMHWVKQRPGQGLEWIGEIDPSDSYTNYNQKFKGKATLTLDKSSSTTYMQLSSLTSEDSAVYYCVRGYGNYGDYWGQGTTLTVSSASTKGP
VL: DVVMTQAAFSNPVTLGTSASISCRSSKSLLHSNGITYLYWYLQKPGQSPQLLIYQMSNLASGVPDRFSSSGSGTDFTLRISRVEAEDVGVYYCAQNLELPWTFGGGTKLEIKRTVAAP

Tests used:
Experiment in all cases: Epitope mapping using Nectin-4 point mutants
Format in all cases: binding
[1] = target: T1, human Nectin-4 Mutant 7 (S195A/K197T/S199A)
Description: (§1) Combined with the published structures of the Nectin-4 domains, Nectin-4 mutations at surface exposed amino acids residues were designed. Nectin-4 domain structure was modelled based on Protein Data Bank reference: 4FRW (domains V et C1). Human Nectin-4 used was NCBI Reference Sequence: NP_112178.2, mouse Nectin-4 used was NCBI Reference Sequence: AAL79833.1, cynomolgus Nectin-4 used was NCBI Reference Sequence: XP_005541277.1, rat Nectin-4 used was NCBI Reference Sequence: NP_001102546.1. The cells expressing the Nectin-4 mutants are then be used for testing anti-Nectin-4 antibodies for loss of binding to different Nectin-4 mutants to identify antibodies that bind to the same site on Nectin-4. […] FIGS. 8A and 8B show different view of a molecular model of the human Nectin-4 protein, indicating the position of substituted residues in mutants 1, 2, 3, 4, 5, 6, 7, 8 and 9.
(§2) Nectin-4 mutants were generated by PCR. The sequences amplified were run on agarose gel and purified using the Macherey Nagel PCR Clean-Up Gel Extraction kit. The purified PCR products generated for each mutant were then ligated into an expression vector, with the ClonTech InFusion system. The vectors containing the mutated sequences were prepared as Miniprep and sequenced. After sequencing, the vectors containing the mutated sequences were prepared as Midiprep using the Promega PureYield™ Plasmid Midiprep System. HEK293T cells were grown in DMEM medium (Invitrogen), transfected with vectors using Invitrogen's Lipofectamine 2000 and incubated at 37° C. in a CO2 incubator for 48 hours prior to testing for transgene expression. The targeted amino acid mutations are shown in Table 13 below, listing the residue present in wild-type Nectin-4/position of residue/residue present in mutant Nectin-4, with position reference being to the Nectin-4 protein with leader peptide shown in SEQ ID NO: 1.
(§3) (+) means that antibodies-Nectin-4 association occurs.

[2] = target: T2, human Nectin-4 Mutant 7bis (A72P/G73N/K197T/S199A)
Description: as §1, §2, §3

[3] = test system: human Nectin-4 Mutant 5 (A158P/E160G/S243A/F244S); details: results irrelevant due to an absence of expression of said protein
Description: as §1, §2, §3

[4] = target: T3, human Nectin-4 Mutant 3 (A76S/Q77R/E78A/S91N)
Description: as §1, §2, §3

Row | Molecule | association with Mutant 7 [1] | association with Mutant 7bis [2] | association with Mutant 5 [3] | association with Mutant 3 [4]
1 | B1 | + | + | − | +
2 | B2 | − | − | − | +
